Assay results published in publication PMC10499821.

B1: unnamed (parent)
chain 1: NNELSPVALRQMSCAAGTTQTACTDDNALAYYNTTKGGRFVLALLSDLQDLKWARFPKSDGTGTIYTELEPPCRFVTDTPKGPKVKYLYFIKGLNNLNRGMVLGSLAATVRLQ
chain 2: AEGIDIGEMPSYDLVL

Variants of: B1
Assay: fluorescence polarisation saturation
Details: with partner chain of the complex shown

Row | Variant | Kd
1 | chain 1 NNELSPVALRQMSCAAGTTQTACTDDNALAYYNTTKGGRFVLALLSDLQDLKWARFPKSDGTGTIYTELEPPCRFVTDTPKGPKVKYLYFIKGLNNLNRNMVLDSLAATVRLQ [chain 1 G100N G104D] | 20 µM
